B1: CPEB3 Ribozyme (parent)
chain: GGGGGCCACAGCAGAAGCGUUCACGUCGCGGCCCCUGUCAGAUUCUGGUGAAUCUGCGAAUUCUGCUGU

Variants of: B1
Assay: self-cleavage, relative activity (ratio to wild type); higher = more cleavage; co-transcriptional
In the case of GGGGGCCACAGCAGAAGCGUUCACGUCGCGGCCCCUGUCAGAGUCUGGUGAAUCUGCGAAUUCUGCUCU [U43G G68C], the self-cleavage is reported as 0.902.
In the case of GGGGGCCACAGCAGAAGCGUUCACGUCGCGGCCCCUGUCAGAGUUUGGUGAAUCUGCGAAUUCUGCUGU [U43G C45U], the self-cleavage is reported as 1.02.
With GGGGGCCACAGCAGAAGCGUUCACGUCGCGGCCCCUGUCAGACUCUGGUGAAUCUGUGAAUUCUGCUGU [U43C C57U] the self-cleavage was 0.394.
GGGGGCCACAGCAGAAGCGUUCACGUCGCGGCCCCUGUCAGAGGCUGGUGAAUCUGCGAAUUCUGCUGU [U43G U44G] gave a self-cleavage of 0.83.
GGGGGCCACAGCAGAAGCGUUCACGUCGCGGCCCCUGUCAGAUACCGGUGAAUCUGCGAAUUCUGCUGU [U44A U46C] gave a self-cleavage of 0.993.
GGGGGCCACAGCAGAAGCGUUCACGUCGCGGCCCCUGUCAGAUACGGGUGAAUCUGCGAAUUCUGCUGU [U44A U46G] showed a self-cleavage of 0.981.
GGGGGCCACAGCAGAAGCGUUCACGUCGCGGCCCCUGUCAGAGUCUGGUGAAUCUGCGAAUUCGGCUGU [U43G U64G] gave a self-cleavage of 0.649.
For GGGGGCCACAGCAGAAGCGUUCACGUCGCGGCCCCUGUCAGACUCUGGUGAAUCUGCGAAAUCUGCUGU [U43C U61A], the self-cleavage was 0.764.
GGGGGCCACAGCAGAAGCGUUCACGUCGCGGCCCCUGUCAGACUCUGGUGAAUCUGCGAAGUCUGCUGU [U43C U61G] gave a self-cleavage of 0.562.
GGGGGCCACAGCAGAAGCGUUCACGUCGCGGCCCCUGUCAGACUCUGGUGAAUCUGCGAACUCUGCUGU [U43C U61C] gave a self-cleavage of 0.511.
GGGGGCCACAGCAGAAGCGUUCACGUCGCGGCCCCUGUCAGACUCUGGUGAAUCUGCGAAUUCUGAUGU [U43C C66A] gave a self-cleavage of 0.614.
GGGGGCCACAGCAGAAGCGUUCACGUCGCGGCCCCUGUCAGACUCUGGUGAAUCUGCGAAUUCUGCUAU [U43C G68A] gave a self-cleavage of 1.03.
For GGGGGCCACAGCAGAAGCGUUCACGUCGCGGCCCCUGUCAGACUCUGGUGAAUCUGCGAAUUCUGCUCU [U43C G68C], the self-cleavage was 1.01.
Work on GGGGGCCACAGCAGAAGCGUUCACGUCGCGGCCCCUGUCAGAGUCUGGUGAAUCUGCGAAUUCUACUGU [U43G G65A] yielded a self-cleavage of 0.453.
GGGGGCCACAGCAGAAGCGUUCACGUCGCGGCCCCUGUCAGACUCUGGUGAAUCUGCGAAUUCUACUGU [U43C G65A] gave a self-cleavage of 0.732.
Variant GGGGGCCACAGCAGAAGCGUUCACGUCGCGGCCCCUGUCAGACUCUGGUGAAUCUGCGAAUUCUUCUGU [U43C G65U] has a self-cleavage of 0.568.
With GGGGGCCACAGCAGAAGCGUUCACGUCGCGGCCCCUGUCAGAUACUGGUGAAUCUUCGAAUUCUGCUGU [U44A G56U] the self-cleavage was 0.677.
In the case of GGGGGCCACAGCAGAAGCGUUCACGUCGCGGCCCCUGUCAGAUACUGCUGAAUCUGCGAAUUCUGCUGU [U44A G48C], the self-cleavage is reported as 1.01.
For GGGGGCCACAGCAGAAGCGUUCACGUCGCGGCCCCUGUCAGAUACUGUUGAAUCUGCGAAUUCUGCUGU [U44A G48U], the self-cleavage was 0.982.
In the case of GGGGGCCACAGCAGAAGCGUUCACGUCGCGGCCCCUGUCAGAUACUGGUGAAUCUGCGAAGUCUGCUGU [U44A U61G], the self-cleavage is reported as 0.645.
With GGGGGCCACAGCAGAAGCGUUCACGUCGCGGCCCCUGUCAGAGUCUGGUGAAUCUUCGAAUUCUGCUGU [U43G G56U] the self-cleavage was 0.385.
With GGGGGCCACAGCAGAAGCGUUCACGUCGCGGCCCCUGUCAGAGUCUGGUGAAUCUGUGAAUUCUGCUGU [U43G C57U] the self-cleavage was 0.385.
With GGGGGCCACAGCAGAAGCGUUCACGUCGCGGCCCCUGUCAGAGUCUGGUGAAUCUGGGAAUUCUGCUGU [U43G C57G] the self-cleavage was 0.308.
GGGGGCCACAGCAGAAGCGUUCACGUCGCGGCCCCUGUCAGACUCUGGUGAAUCUGCGAAUUCUGCUGG [U43C U69G] showed a self-cleavage of 1.03.
Work on GGGGGCCACAGCAGAAGCGUUCACGUCGCGGCCCCUGUCAGACUCUGGUGAAUCUGCGAAUUCUGCUGC [U43C U69C] yielded a self-cleavage of 1.07.
GGGGGCCACAGCAGAAGCGUUCACGUCGCGGCCCCUGUCAGAUACUGGCGAAUCUGCGAAUUCUGCUGU [U44A U49C] showed a self-cleavage of 0.922.
GGGGGCCACAGCAGAAGCGUUCACGUCGCGGCCCCUGUCAGACUCUUGUGAAUCUGCGAAUUCUGCUGU [U43C G47U] gave a self-cleavage of 0.98.
With GGGGGCCACAGCAGAAGCGUUCACGUCGCGGCCCCUGUCAGAUACUGGUGAAUUUGCGAAUUCUGCUGU [U44A C54U] the self-cleavage was 0.923.
GGGGGCCACAGCAGAAGCGUUCACGUCGCGGCCCCUGUCAGAUCCUGGUGAAUCUGCGACUUCUGCUGU [U44C A60C] showed a self-cleavage of 0.378.
GGGGGCCACAGCAGAAGCGUUCACGUCGCGGCCCCUGUCAGAGUCUGGUGAAUCUGCGAAUUCUGGUGU [U43G C66G] gave a self-cleavage of 0.484.
GGGGGCCACAGCAGAAGCGUUCACGUCGCGGCCCCUGUCAGAGUCUGGUCAAUCUGCGAAUUCUGCUGU [U43G G50C] showed a self-cleavage of 0.864.
GGGGGCCACAGCAGAAGCGUUCACGUCGCGGCCCCUGUCAGAUCGUGGUGAAUCUGCGAAUUCUGCUGU [U44C C45G] gave a self-cleavage of 1.
In the case of GGGGGCCACAGCAGAAGCGUUCACGUCGCGGCCCCUGUCAGAGUCUAGUGAAUCUGCGAAUUCUGCUGU [U43G G47A], the self-cleavage is reported as 0.95.
Variant GGGGGCCACAGCAGAAGCGUUCACGUCGCGGCCCCUGUCAGAGUCUUGUGAAUCUGCGAAUUCUGCUGU [U43G G47U] has a self-cleavage of 0.999.
Variant GGGGGCCACAGCAGAAGCGUUCACGUCGCGGCCCCUGUCAGAGUCUGGUGAAUCUGCAAAUUCUGCUGU [U43G G58A] has a self-cleavage of 0.881.
GGGGGCCACAGCAGAAGCGUUCACGUCGCGGCCCCUGUCAGACUCUGGAGAAUCUGCGAAUUCUGCUGU [U43C U49A] showed a self-cleavage of 0.988.
GGGGGCCACAGCAGAAGCGUUCACGUCGCGGCCCCUGUCAGACUCUGGGGAAUCUGCGAAUUCUGCUGU [U43C U49G] showed a self-cleavage of 0.949.
GGGGGCCACAGCAGAAGCGUUCACGUCGCGGCCCCUGUCAGAGUCUGGUGAAUCUGCGAAUACUGCUGU [U43G U62A] gave a self-cleavage of 0.529.
With GGGGGCCACAGCAGAAGCGUUCACGUCGCGGCCCCUGUCAGAGUCUGGUGAAUCUGCGAAUCCUGCUGU [U43G U62C] the self-cleavage was 0.437.

Source: the RNAGym collection of RNA variant scans (doi:10.7554/elife.80360)
